In paper PMC6086316:

Assays:
[1] = target: recombinant mature interleukin-8 (IL-8) (human); assay: time-resolved fluorometric immunoassay (TRFIA); 60 pmol IL-8 or IL-1β coated on wells; emHofQ wild type and mutants 5 nM-2 μM, 4°C overnight; Eu-N1 anti-6xHis antibody; apparent Kd
[2] = target: recombinant emHofQ (without a His tail) (Aggregatibacter actinomycetemcomitans); assay: thermal shift assay (differential scanning fluorometry); PBS, SYPRO orange; 5 μM emHofQ with 5-200 μM IL-8, or 5 μM IL-1β with 2.5-50 μM emHofQ; heated 20-99°C
[3] = target: N-His-emHofQ (Aggregatibacter actinomycetemcomitans); assay: SPR; Biacore X; N-His-emHofQ coupled to Ni-NTA chip (115-199 RU); IL-8 injected at 1-15 000 nM, 30 μl/min; 10 mM HEPES, 150 mM NaCl, 0.005% P-20, pH 7.4; one-site binding model; apparent
[4] = target: human mature interleukin-1β (IL-1β, amino acids 117-269) (human); assay: thermal shift assay (differential scanning fluorometry); PBS, SYPRO orange; 5 μM emHofQ with 5-200 μM IL-8, or 5 μM IL-1β with 2.5-50 μM emHofQ; heated 20-99°C
Chain of human mature interleukin-1β (IL-1β, amino acids 117-269) (human) (P01584 117-269): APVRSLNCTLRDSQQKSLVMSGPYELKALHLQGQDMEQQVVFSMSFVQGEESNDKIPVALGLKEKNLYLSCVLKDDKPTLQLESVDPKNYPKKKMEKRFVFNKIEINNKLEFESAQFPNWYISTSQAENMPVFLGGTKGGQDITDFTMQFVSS

[5] = target: human mature interleukin-1β (IL-1β, amino acids 117-269) (human); assay: time-resolved fluorometric immunoassay (TRFIA); 60 pmol IL-8 or IL-1β coated on wells; emHofQ wild type and mutants 5 nM-2 μM, 4°C overnight; Eu-N1 anti-6xHis antibody; apparent Kd
[6] = target: human mature interleukin-1β (IL-1β, amino acids 117-269) (human); assay: time-resolved fluorometric immunoassay (TRFIA); 6 pmol IL-8 or IL-1β coated on wells; C-His-emHofQ 10-740 nM in Delfia Assay Buffer, RT 1 h; Eu-N1 anti-6xHis antibody; one-to-one fit
[7] = target: recombinant mature interleukin-8 (IL-8) (human); assay: as above
[8] = target: human mature interleukin-1β (IL-1β, amino acids 117-269) (human); assay: ELISA; cytokines (6 pmol per well) coated on Maxisorp plates; 490 nM emHofQ with C-terminal 8-His tail in PBS, 4°C overnight; detection with His-Probe-HRP; values compared with BSA control
[9] = target: recombinant mature interleukin-8 (IL-8) (human); assay: as above

## emHofQ_L1L2 (H136A, F137A, K139A, D165A, R166A) (domain or fragment)
[1]
  Kd: 0.2 µM

## emHofQ_L2 (D165A, R166A) (domain or fragment)
[1]
  Kd: 0.11 µM

## recombinant mature interleukin-8 (IL-8) (natural protein)
[2]
  Tm of emHofQ with 200 μM IL-8 (45.3°C without): 51.7 °C
[3]
  Kd: 2.4 µM

## recombinant emHofQ (without a His tail) (domain or fragment)
[4]
  Tm of IL-1β with 50 μM emHofQ (60.2°C without): 55.8 °C

## C-His emHofQ (extramembranous domain of the secretin HofQ, C-terminal His tag) (domain or fragment)
[5]
  Kd: 0.09 µM
[1]
  Kd: 0.044 µM
[6]
  Kd: 0.14 µM
[7]
  Kd: 0.043 µM
[8]
  fold binding over the control (BSA): 1.3 fold
[9]
  fold binding over the control (BSA): 4 fold

## emHofQ_L1 (H136A, F137A, K139A) (domain or fragment)
[1]
  Kd: 0.19 µM
